{
  "source": "IntAct's records for PubMed 17098193",
  "parents": {"B1": {"name": "Splicing factor 3A subunit 1 (Homo sapiens), Q15459 (parent)", "chain": "MPAGPVQAVPPPPPVPTEPKQPTEEEASSKEDSAPSKPVVGIIYPPPEVRNIVDKTASFVARNGPEFEARIRQNEINNPKFNFLNPNDPYHAYYRHKVSEFKEGKAQEPSAAIPKVMQQQQQTTQQQLPQKVQAQVIQETIVPKEPPPEFEFIADPPSISAFDLDVVKLTAQFVARNGRQFLTQLMQKEQRNYQFDFLRPQHSLFNYFTKLVEQYTKILIPPKGLFSKLKKEAENPREVLDQVCYRVEWAKFQERERKKEEEEKEKERVAYAQIDWHDFVVVETVDFQPNEQGNFPPPTTPEELGARILIQERYEKFGESEEVEMEVESDEEDDKQEKAEEPPSQLDQDTQVQDMDEGSDDEEEGQKVPPPPETPMPPPLPPTPDQVIVRKDYDPKASKPLPPAPAPDEYLVSPITGEKIPASKMQEHMRIGLLDPRWLEQRDRSIREKQSDDEVYAPGLDIESSLKQLAERRTDIFGVEETAIGKKIGEEEIQKPEEKVTWDGHSGSMARTQQAAQANITLQEQIEAIHKAKGLVPEDDTKEKIGPSKPNEIPQQPPPPSSATNIPSSAPPITSVPRPPTMPPPVRTTVVSAVPVMPRPPMASVVRLPPGSVIAPMPPIIHAPRINVVPMPPSAPPIMAPRPPPMIVPTAFVPAPPVAPVPAPAPMPPVHPPPPMEDEPTSKKLKTEDSLMPEEEFLRRNKGPVSIKVQVPNMQDKTEWKLNGQVLVFTLPLTDQVSVIKVKIHEATGMPAGKQKLQYEGIFIKDSNSLAYYNMANGAVIHLALKERGGRKK", "partner": "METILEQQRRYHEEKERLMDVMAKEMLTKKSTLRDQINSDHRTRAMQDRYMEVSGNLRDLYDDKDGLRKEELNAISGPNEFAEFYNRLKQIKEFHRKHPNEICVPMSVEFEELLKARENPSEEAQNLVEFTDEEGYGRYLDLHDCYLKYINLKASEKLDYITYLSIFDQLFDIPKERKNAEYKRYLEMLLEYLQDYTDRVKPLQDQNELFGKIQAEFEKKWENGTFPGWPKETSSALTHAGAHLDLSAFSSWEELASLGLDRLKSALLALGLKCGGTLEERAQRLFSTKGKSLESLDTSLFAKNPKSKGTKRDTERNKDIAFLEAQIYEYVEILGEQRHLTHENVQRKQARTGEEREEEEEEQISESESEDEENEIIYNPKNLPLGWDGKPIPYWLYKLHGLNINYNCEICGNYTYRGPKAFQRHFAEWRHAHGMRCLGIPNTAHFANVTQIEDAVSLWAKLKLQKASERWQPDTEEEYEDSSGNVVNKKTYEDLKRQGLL"}},
  "data": [
    {"variants_of": "B1", "details": "with sf3a3_human SF3A3, Q12874", "values": [
      {"variant": "L169K", "effect of a mutation on the interaction": "disrupting interaction"}
    ]},
    {"variants_of": "B1", "details": "with sf3a3_human SF3A3, Q12874", "remark": "another data set of the same source", "values": [
      {"variant": "K55L", "effect of a mutation on the interaction": "increasing interaction"}
    ]}
  ]
}
